Literature values in patent US20120128767A1, “THERAPEUTIC CALCIUM PHOSPHATE PARTICLES AND METHODS OF MAKING AND USING SAME” (priority 2008, published 2012).
Like-named read-outs stand apart in the source and are kept apart here.

## insulin
Insulin added to preformed calcium phosphate particles
  absorption efficiency: about 40%
Insulin mixed during the particle formation
  absorption efficiency: about 89%
